Results from publication PMC9680129, “SARS-CoV-2 accessory protein 7b forms homotetramers in detergent” (Virology Journal, 2022).
Values joined by “and” are separate entries in the source; they are usually repeats but may differ in a detail not shown here. Equal entries are not always repeated.

Legend:
[1] = molecular target: transmembrane domain of p7b (p7b-TM) (SARS-CoV); assay: AUC
[2] = molecular target: transmembrane domain of p7b (p7b-TM) (SARS-CoV); assay: AUC; remark: listed apart in the source
[3] = molecular target: transmembrane domain of p7b (p7b-TM) (SARS-CoV); assay: SDS-PAGE
AUC = molecular target: the molecule itself; assay: AUC
SDS-PAGE = molecular target: the molecule itself; assay: SDS-PAGE

| Molecule | stoichiometry N [1] | stoichiometry N [2] | stoichiometry N [3] | stoichiometry N (AUC) | stoichiometry N (SDS-PAGE) |
| --- | --- | --- | --- | --- | --- |
| transmembrane domain of p7b (p7b-TM) (domain or fragment) | 4 | 2 | 2 | – | – |
| MIELSLIDFYLCFLAFLLFLVLIMLIIFWFSLELQDHNETCHA (natural protein, also called SARS-2 p7b; SARS-2 7b) [SARS-CoV-2 accessory protein 7b] | – | – | – | 4 | 2 |
| MNELTLIDFYLCFLAFLLFLVLIMLIIFWFSLEIQDLEEPCTKV (natural protein, also called SARS p7b; SARS 7b) [SARS-CoV accessory protein 7b] | – | – | – | 4 and 2 | – |
